Laboratory results reported in publication PMC8685681.

Legend:
[1] = biological target: M1 muscarinic acetylcholine receptor, wild type (M1-WT), transfected in HEK293T cells (UniProt P12657)
[2] = biological target: phosphorylation-deficient M1 muscarinic acetylcholine receptor (M1-PD), transfected in HEK293T cells (UniProt P12657)

Substance	Emax of ACh-stimulated Gq activation (BRET biosensor, decrease in BRET, HEK cells) [1]	Emax of ACh-stimulated Gq activation (BRET biosensor, decrease in BRET, HEK cells) [2]	Emax of ACh-stimulated β-arrestin-2 recruitment (bystander BRET: translocation of β-arrestin-2 to the cell membrane, HEK293T cells) [1]	Emax of ACh-stimulated β-arrestin-2 recruitment (bystander BRET: translocation of β-arrestin-2 to the cell membrane, HEK293T cells) [2]
Gq (Gαq, BRET biosensor of Gq activation in HEK cells) (from UniProt P50148 1-359) (natural protein)	100	108		
β-arrestin-2 (bystander BRET sensor in HEK293T cells) (from UniProt P32121 1-409) (natural protein)			104	40.7
